Experimental data: US20160304608A1 (published 2016)

Tests used:
[1] = molecular target: T1, human FcRn (hFcRn) (human, UniProt P55899 24-297; P16213 21-119, limits assumed); assay: SPR (Biacore 3000), antibody amine-coupled on CM5, hFcRn analyte, pH 6.0, 25 C, 1:1 model
T1 construct: hFcRn was the soluble analyte in SPR; also called FcRn analyte
Procedure: SPR measurements were performed using a Biacore 3000. […] The sensor chip surface was regenerated with a 30 sec pulse of 10 mM glycine pH 1.5 at a flow rate of […] followed by a 15 second pulse of buffer. Measurements were performed at 25° C. using HBS-P as the running buffer. The reference flow cell was activated and blocked in a mock amine coupling reaction. The data was fit to a 1:1 binding model using Biaevalution v.4.1 software.

[2] = molecular target: T1, human FcRn (hFcRn); assay: SPR (Biacore 3000), antibody amine-coupled on CM5, hFcRn analyte, pH 7.5, 25 C, 1:1 model

Kd [1]	Kd [2]	kon [2]	koff [1]	kon [1]	koff [2]	Binder
1.8 nM	2 nM	110000 M⁻¹ s⁻¹				532A-X54-B03 (cys to ala mutant of DX-2504) (antibody, V domains shown, also called 532-X54-B03; 532A-X53-B03) VH: EVQLLESGGGLVQPGGSLRLSCAASGFTFSEYAMGWVRQAPGKGLEWVSSIGSSGGQTKYADSVKGRFTISRDNSKNTLYLQMNSLRAEDTAVYYCARLAIGDSYWGQGTMVTVSS VL: QSALTQPASVSGSPGQSITISCTGTGSDVGSYNLVSWYQQHPGKAPKLMIYGDSQRPSGVSNRFSGSKSGNTASLTISGLQAEDEADYYCASYAGSGIYVFGTGTKVTVL
1.4 nM	1.7 nM	190000 M⁻¹ s⁻¹	0.00043 s⁻¹	310000 M⁻¹ s⁻¹	0.00032 s⁻¹	532A-X53-C02 (cys to ser mutant of DX-2504) (antibody, V domains shown, also called C54-C02) VH: EVQLLESGGGLVQPGGSLRLSCAASGFTFSEYAMGWVRQAPGKGLEWVSSIGSSGGQTKYADSVKGRFTISRDNSKNTLYLQMNSLRAEDTAVYYCARLAIGDSYWGQGTMVTVSS VL: QSALTQPASVSGSPGQSITISCTGTGSDVGSYNLVSWYQQHPGKAPKLMIYGDSQRPSGVSNRFSGSKSGNTASLTISGLQAEDEADYYCSSYAGSGIYVFGTGTKVTVL
1.5 nM	1.9 nM	150000 M⁻¹ s⁻¹	0.00035 s⁻¹	240000 M⁻¹ s⁻¹	0.00028 s⁻¹	DX-2504 anti-FcRn antibody (antibody, human IgG1, lambda, It was immobilized by amine coupling in the SPR assay) heavy: not shown light: QSALTQPASVSGSPGQSITISCTGTGSDVGSYNLVSWYQQHPGKAPKLMIYGDSQRPSGVSNRFSGSKSGNTASLTISGLQAEDEADYYCCSYAGSGIYVFGTGTKVTVLGQPKANPTVTLFPPSSEELQANKATLVCLISDFYPGAVTVAWKADGSPVKAGVETTKPSKQSNNKYAASSYLSLTPEQWKSHRSYSCQVTHEGSTVEKTVAPTECS
